Common to all, as to assay: yeast two-hybrid; prey clone found with the bait of the row
Experiment [1] addresses T1, PRAK NUC 201-1104 K51M, T182D (bait) (UniProt Q8IW41 1-301).
T1 construct: Limits printed as nucleotides only; also called Protein Kinase PRAK
T1 sequence (looked up): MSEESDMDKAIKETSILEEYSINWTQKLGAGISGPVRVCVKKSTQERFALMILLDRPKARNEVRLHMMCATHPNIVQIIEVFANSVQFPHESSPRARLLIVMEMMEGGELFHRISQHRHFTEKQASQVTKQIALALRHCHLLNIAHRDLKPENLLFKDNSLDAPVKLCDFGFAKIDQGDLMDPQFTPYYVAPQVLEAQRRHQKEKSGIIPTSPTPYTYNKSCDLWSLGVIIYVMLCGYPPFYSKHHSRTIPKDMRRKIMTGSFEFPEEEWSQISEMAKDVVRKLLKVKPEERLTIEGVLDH
The text has this:
(§1) A total human brain (person) cDNA library cloned into the yeast expression vector pACT2 was purchased from Clontech (human brain […] cDNA, cat. # HL4004AH), transformed into the yeast strain J692 (genotype of this strain: Mat a, ade2, his3, leu2, trp1, URA3::GAL1-lacZ LYS2::GAL1-HIS3 ga14del ga180del cyhR2), and selected for the ability to drive leucine synthesis. In these yeast cells, each cDNA is expressed as a fusion protein with the transcription activation domain of the transcription factor Ga14 (amino acids 768 to 881) and a 9 amino acid hemagglutinin epitope tag. J693 cells (Mat α type) expressing the bait were then mated with J692 cells (Mat a type) expressing proteins from the brain library. The resulting diploid yeast cells expressing proteins interacting with the bait protein were selected for the ability to synthesize tryptophan, leucine, histidine, and β-galactosidase. DNA was prepared from each clone, transformed by electroporation into E. coli strain KC8 (Clontech KC8 electrocompetent cells, cat. # C2023-1), and the cells were selected on ampicillin-containing plates in the absence of either tryptophane (selection for the bait plasmid) or leucine (selection for the brain library plasmid). DNA for both plasmids was prepared and sequenced by di-deoxynucleotide chain termination method. The identity of the bait cDNA insert was confirmed and the cDNA insert from the brain library plasmid was identified using BLAST program against public nucleotides and protein databases. Plasmids from the brain library (preys) were then individually transformed into yeast cells together with a plasmid driving the synthesis of lamin fused to the Ga14 DNA binding domain. Clones that gave a positive signal after β-galactosidase assay were considered false-positives and discarded. Plasmids for the remaining clones were transformed into yeast cells together with plasmid for the original bait. Clones that gave a positive signal after β-galactosidase assay were considered true positives.
(§2) The “AA” refers to the amino acids of the bait or prey. The “NUC” refers to the nucleotides of the bait or prey.

Experiment [2] addresses T2, MAPKAP-K3 NUC 433-1003 (bait) (UniProt Q16644 114-304).
T2 construct: range 114-304; also called MAP Kinase MAPKAP-K3
Description: as §1, §2

For experiment [3], the target named is T3, Profilin II amino acids 4-91 (prey) (human, UniProt P35080 4-91).
T3 construct: range 4-91
T3 sequence (looked up): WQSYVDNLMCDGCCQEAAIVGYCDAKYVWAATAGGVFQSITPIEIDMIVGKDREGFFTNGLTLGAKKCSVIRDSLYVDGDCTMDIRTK
Description: as §1, §2

Experiment [4] has as its target T4, PRAK NUC 201-1104 K51M (bait) (UniProt Q8IW41 1-301).
T4 construct: Limits printed as nucleotides only; also called Protein Kinase PRAK
T4 sequence (looked up): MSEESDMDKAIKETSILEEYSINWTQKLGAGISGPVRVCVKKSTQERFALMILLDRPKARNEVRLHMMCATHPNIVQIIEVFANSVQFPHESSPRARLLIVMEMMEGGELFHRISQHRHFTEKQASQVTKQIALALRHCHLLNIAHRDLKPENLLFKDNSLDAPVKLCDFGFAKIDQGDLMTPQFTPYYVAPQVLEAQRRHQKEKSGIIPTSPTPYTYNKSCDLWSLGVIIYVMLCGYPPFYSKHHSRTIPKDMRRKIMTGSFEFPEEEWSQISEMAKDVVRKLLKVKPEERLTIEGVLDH
Description: as §1, §2

The target in experiment [5] is T5, PRAK NUC 201-1104 (bait, no mutation) (UniProt Q8IW41 1-301).
T5 construct: Limits printed as nucleotides only; also called Protein Kinase PRAK
T5 sequence (looked up): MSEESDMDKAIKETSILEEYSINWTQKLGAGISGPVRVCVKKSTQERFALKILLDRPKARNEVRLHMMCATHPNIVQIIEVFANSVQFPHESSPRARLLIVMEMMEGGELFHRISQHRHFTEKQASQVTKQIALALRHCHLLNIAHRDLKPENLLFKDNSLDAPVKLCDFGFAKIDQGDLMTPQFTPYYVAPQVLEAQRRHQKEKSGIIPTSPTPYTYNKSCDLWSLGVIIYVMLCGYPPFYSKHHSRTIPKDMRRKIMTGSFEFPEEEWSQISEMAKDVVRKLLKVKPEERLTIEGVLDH
Description: as §1, §2

The target in experiment [6] is T6, p38 gamma amino acids 29-368 (bait) (UniProt P53778 29-367).
T6 construct: range 29-368; also called Protein Kinase p38 gamma; p38 gamma kinase
T6 sequence (looked up): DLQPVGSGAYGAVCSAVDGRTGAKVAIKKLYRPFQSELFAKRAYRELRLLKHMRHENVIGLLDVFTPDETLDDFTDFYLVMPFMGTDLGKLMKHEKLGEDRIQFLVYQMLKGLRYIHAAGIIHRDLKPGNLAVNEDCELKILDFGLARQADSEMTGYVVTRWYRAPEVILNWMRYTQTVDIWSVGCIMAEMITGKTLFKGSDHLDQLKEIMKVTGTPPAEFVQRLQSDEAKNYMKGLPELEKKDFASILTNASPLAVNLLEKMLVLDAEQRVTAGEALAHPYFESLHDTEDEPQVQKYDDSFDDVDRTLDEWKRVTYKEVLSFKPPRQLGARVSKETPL
Description: as §1, §2

Here are results for ten molecules from US20020102606A1 (published 2002).

T2 sequence (Q16644 114-304 limits assumed): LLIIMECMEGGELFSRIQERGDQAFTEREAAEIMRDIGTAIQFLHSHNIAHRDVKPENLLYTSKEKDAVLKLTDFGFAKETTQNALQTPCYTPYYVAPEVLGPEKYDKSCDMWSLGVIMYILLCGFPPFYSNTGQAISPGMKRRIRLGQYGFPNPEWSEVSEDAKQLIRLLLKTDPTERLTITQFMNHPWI

B1: Homer-3 NUC 774-1152 (prey) (other, human, UniProt Q9NSC5 228-354, looked up)
chain: RQRVAELEAQAASEVTPTGEKEGLGQGQSLEQLEALVQTKDQEIQTLKSQTGGPREALEAAEREETQQKVQDLETRNAELEHQLRAMERSLEEARAERERARAEVGRAAQLLDVSLFELSELREGLA
notes: Limits printed as nucleotides only
Turning to B1, the binding result in experiment [1] is on record as “binds”.

B2: Histone Acetyl Transferase 1 (HAT1) amino acids 334-420 (prey) (enzyme, human, UniProt O14929 334-419, looked up)
chain: ILRLLVTDMSDAEQYRSYRLDIKRRLISPYKKKQRDLAKMRKCLRPEELTNQMNQIEISMQHEQLEESFQELVEDYRRVIERLAQE
notes: range 334-420
With B2, the binding result in experiment [1] is given as “binds”.

B3: Homer-3 NUC 720-1152 (prey) (other, human, UniProt Q9NSC5 210-354, looked up)
chain: AAQWRQQLEAQRAEAERLRQRVAELEAQAASEVTPTGEKEGLGQGQSLEQLEALVQTKDQEIQTLKSQTGGPREALEAAEREETQQKVQDLETRNAELEHQLRAMERSLEEARAERERARAEVGRAAQLLDVSLFELSELREGLA
For the molecule B3, in experiment [2], the binding result is listed as “binds”.

B4: Vimentin amino acids 309-463 (prey) (other, human, UniProt P08670 309-463, looked up)
chain: LRQAKQESTEYRRQVQSLTCEVDALKGTNESLERQMREMEENFAVEAANYQDTIGRLQDEIQNMKEEMARHLREYQDLLNVKMALDIEIATYRKLLEGEESRISLPLPNFSSLNLRETNLDSLPLVDTHSKRTLLIKTVETRDGQVINETSQHHD
notes: range 309-463
On to B4, for which the binding result in experiment [2] is reported as “binds”.

B5: Nuclear Mitotic Apparatus Protein 1 (NuMA1) NUC 1395-1713 (prey) (other, human, UniProt Q14980 413-519, looked up)
chain: LQLETLKQEAATLAANNTQLQARVEMLETERGQQEAKLLAERGHFEEEKQQLSSLITDLQSSISNLSQAKEELEQASQAHGARLTAQVASLTSELTTLNATIQQQDQ
notes: range 413-519
Turning to B5, the binding result in experiment [2] is given as “binds”.

B6: Nuclear Mitotic Apparatus Protein 1 (NuMA1) NUC 1394-1711 (prey) (other, human, UniProt Q14980 413-519, looked up)
chain: LQLETLKQEAATLAANNTQLQARVEMLETERGQQEAKLLAERGHFEEEKQQLSSLITDLQSSISNLSQAKEELEQASQAHGARLTAQVASLTSELTTLNATIQQQDQ
notes: as for B1
For B6, the binding result in experiment [1] is “binds”.
Take MMEDDGQPRTLYVGNLSRDVTEVLILQLFSQIGPCKSCKMITEHTSND (other) [TIAR amino acids 1-48 (bait)]: in experiment [3], the binding result is “binds”.

B7: ERF-2 amino acids 7-192 (prey) (other, human, UniProt P47974 7-192, looked up)
chain: SAFYDVDFLCKTEKSLANLNLNNMLDKKAVGTPVAAAPSSGFAPGFLRRHSASNLHALAHPAPSPGSCSPKFPGAANGSSCGSAAAGGPTSYGTLKEPSGGGGTALLNKENKFRDRSFSENGDRSQHLLHLQQQQKGGGGSQINSTRYKTELCRPFEESGTCKYGEKCQFAHGFHELRSLTRHPKY
notes: range 7-192; also called TIS11D
As for B7, the binding result in experiment [2] is recorded as “binds”.

B8: MLK2 amino acids 398-556 (prey) (enzyme, human, UniProt Q02779 398-556, looked up)
chain: LRSREEELLRAAQEQRFQEEQLRRREQELAEREMDIVERELHLLMCQLSQEKPRVRKRKGNFKRSRLLKLREGGSHISLPSGFEHKITVQASPTLDKRKGSDGASPPASPSIIPRLRAIRLTPVDCGGSSSGSSSGGSGTWSRGGPPKKEELVGGKKKG
notes: range 398-556; also called mixed lineage kinase
Take B8: the binding result in experiment [4] and in experiment [5] was “binds” each time.

B9: DLG2 amino acids 294-594 (prey) (other, human, UniProt Q15700 294-594, looked up)
chain: THSYSPPMENHLLSGNNGTLEYKTSLPPISPGRYSPIPKHMLVDDDYTRPPEPVYSTVNKLCDKPASPRHYSPVECDKSFLLSAPYSHYHLGLLPDSEMTSHSQHSTATRQPSMTLQRAVSLEGEPRKVVLHKGSTGLGFNIVGGEDGEGIFVSFILAGGPADLSGELQRGDQILSVNGIDLRGASHEQAAAALKGAGQTVTIIAQYQPEDYARFEAKIHDLREQMMNHSMSSGSGSLRTNQKRSLYVRAMFDYDKSKDSGLPSQGLSFKYGDILHVINASDDEWWQARRVMLEGDSEEMG
notes: range 294-594; also called chapsyn-110
Take B9: the binding result in experiment [6] is listed as “binds”.
